Reference: patent publication US20250270343A1 (Alector, published 2025)

T1: full-length untagged human GPNMB expressed on cells (human, UniProt Q14956 23-572)
T1 construct: also used here for GPNMB on human monocyte-derived macrophages in the functional assays; also called huGPNMB; Freestyle293-huGPNMB+
T1 sequence: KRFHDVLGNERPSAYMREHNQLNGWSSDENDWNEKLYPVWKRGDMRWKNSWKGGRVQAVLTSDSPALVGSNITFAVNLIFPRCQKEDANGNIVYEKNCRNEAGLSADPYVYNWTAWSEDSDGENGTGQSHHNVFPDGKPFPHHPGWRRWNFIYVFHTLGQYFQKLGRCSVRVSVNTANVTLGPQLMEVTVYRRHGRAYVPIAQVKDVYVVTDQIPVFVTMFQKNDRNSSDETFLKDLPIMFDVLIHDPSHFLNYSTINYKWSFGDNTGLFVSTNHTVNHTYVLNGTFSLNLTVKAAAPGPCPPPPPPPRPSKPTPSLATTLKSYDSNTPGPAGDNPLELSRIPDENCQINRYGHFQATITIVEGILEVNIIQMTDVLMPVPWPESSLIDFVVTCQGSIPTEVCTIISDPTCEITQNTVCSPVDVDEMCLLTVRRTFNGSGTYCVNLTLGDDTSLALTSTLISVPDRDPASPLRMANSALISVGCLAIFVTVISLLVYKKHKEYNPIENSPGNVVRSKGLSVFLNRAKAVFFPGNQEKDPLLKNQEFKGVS

T2: soluble mouse GPNMB-Fc polypeptide (mouse IgG2A Fc) (mouse, UniProt Q99P91 23-502)
T2 construct: extracellular domain; bought (R&D System); also called moGPNMB-Fc; mGPNMB-Fc; not shown: Fc region of mouse IgG2A
T2 sequence (looked up): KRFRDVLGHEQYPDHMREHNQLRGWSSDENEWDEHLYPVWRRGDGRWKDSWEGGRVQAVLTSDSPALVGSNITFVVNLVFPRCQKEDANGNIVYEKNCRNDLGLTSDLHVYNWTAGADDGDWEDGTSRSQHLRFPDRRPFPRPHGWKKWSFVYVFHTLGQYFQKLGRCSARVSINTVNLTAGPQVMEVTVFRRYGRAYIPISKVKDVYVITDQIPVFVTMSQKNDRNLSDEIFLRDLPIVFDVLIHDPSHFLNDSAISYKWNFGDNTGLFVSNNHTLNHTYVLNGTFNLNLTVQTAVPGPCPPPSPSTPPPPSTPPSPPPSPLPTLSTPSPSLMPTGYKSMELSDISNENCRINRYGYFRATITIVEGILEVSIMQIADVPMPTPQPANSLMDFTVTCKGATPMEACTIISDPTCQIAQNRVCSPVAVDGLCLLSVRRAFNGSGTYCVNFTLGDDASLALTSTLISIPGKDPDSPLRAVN

T3: mouse GPNMB endogenously expressed on B16F10 cells (mouse, UniProt Q99P91 23-574)
T3 construct: whole, on cells; also called moGPNMB
T3 sequence (looked up): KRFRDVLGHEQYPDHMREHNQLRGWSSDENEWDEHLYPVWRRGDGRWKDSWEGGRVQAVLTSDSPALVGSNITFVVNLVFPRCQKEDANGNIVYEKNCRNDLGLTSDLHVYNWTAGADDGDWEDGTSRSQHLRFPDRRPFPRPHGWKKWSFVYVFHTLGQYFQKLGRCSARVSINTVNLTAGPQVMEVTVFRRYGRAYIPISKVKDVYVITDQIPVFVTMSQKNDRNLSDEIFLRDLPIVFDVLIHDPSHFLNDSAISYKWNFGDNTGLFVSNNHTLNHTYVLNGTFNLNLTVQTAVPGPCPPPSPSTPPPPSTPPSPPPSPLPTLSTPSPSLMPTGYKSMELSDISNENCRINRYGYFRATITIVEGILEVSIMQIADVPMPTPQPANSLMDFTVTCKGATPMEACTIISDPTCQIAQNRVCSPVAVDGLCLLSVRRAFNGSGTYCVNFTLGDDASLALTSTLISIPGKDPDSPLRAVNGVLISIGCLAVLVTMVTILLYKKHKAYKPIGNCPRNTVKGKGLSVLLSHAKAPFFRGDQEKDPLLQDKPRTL


How the values were obtained:
[1] = biological target: T1, full-length untagged human GPNMB …; assay: FACS titration, FS293-huGPNMB+ cells
Experimental: (§1) Affinity matured anti-GPNMB antibodies of the present disclosure were examined to determine their ability to bind human and mouse GPNMB expressed on FS293-huGPNMB+ or B16F10 cells, respectively. Cell-based affinity measurements were performed to ascertain the apparent affinities of anti-GPNMB antibodies to cell-surface expressed GPNMB. Serial dilutions of anti-GPNMB antibodies of the present disclosure were added to 100,000 FS293-huGPNMB+ or B16F10 cells and allowed to achieve binding equilibrium at 4° C. After addition of fluorescently labeled secondary antibody and brief washing steps, MFI values as a function of titrated antibody concentration were recorded via FACS analysis. Equilibrium binding curves were fit using nonlinear regression analysis with Graphpad Prism 6 software.

[2] = biological target: T1, full-length untagged human GPNMB …; assay: cell-based or functional assay
[3] = biological target: T1, full-length untagged human GPNMB …; assay: cell-based or functional assay; remark: listed apart in the source
[4] = biological target: T2, soluble mouse GPNMB-Fc polypeptide …; assay: FACS, blocking of mGPNMB-Fc binding to SVEC cells
Experimental: Purified full-length affinity matured, anti-GPNMB antibodies were evaluated for their ability to block binding of mouse GPNMB-Fc to SVEC cells to calculate the ligand blocking potency of each clone. Briefly, 2 μg/ml soluble mGPNMB-Fc (mouse IgG2A Fc) diluted in binding buffer was pre-complexed with increasing concentrations of anti-GPNMB antibody or human IgG1 isotype control in 96-well plates. Subsequently, 100,000 SVEC cells were added per well and incubated on ice for 30 minutes. Soluble GPNMB-Fc bound to cell surface was detected with fluorescent anti-mouse IgG2A secondary antibody and measured on FACSCanto. Curves were fit using nonlinear regression analysis with Graphpad Prism 6 software.

[5] = biological target: T3, mouse GPNMB endogenously expressed on …; assay: FACS titration, B16F10 cells
Experimental: as §1

EC50 [1] [nM]	EC50 GCase [2] [nM]	EC50 Lyso Tracker [2] [nM]	Fold Decrease Lyso Tracker (max response at 1 µg/ml) [2] [fold]	Fold Increase GCase (max response at 1 µg/ml) [2] [fold]	Inflammasome: Fold Decrease IL-1β (max response at 0.3 µg/ml) [3] [fold]	IC50 [4] [nM]	EC50 [5] [nM]	Binder
0.203	0.834	1.17	0.755	1.32	0.472	1.49	0.293	anti-GPNMB antibody GPN-83 (antibody, V domains shown) VH: QVQLQESGPGLVKPSETLSLTCTVSGISITTGNYRWSWIRQPPGKGLEWIGYIDYSGTITYNPSLKSRVTITRDTSKNQFSLELSSVTAADTAVYYCARDLTHWYFDVWGQGTLVTVSS VL: DIVMTQSPDSLAVSLGERATINCKSSRSVDYYGIGFVNWYQQKPGQPPKLLIYATSIQGSGVPDRFSGSGSGTDFTLTISSLQAEDVAVYYCQQQKEVPPTFGGGTKVEIK
0.203	0.166	1.2	0.731	1.34	0.404	1.26	0.178	anti-GPNMB antibody GPN-86 (antibody, V domains shown) VH: QVQLQESGPGLVKPSETLSLTCTVSGISITTGNYRWSWIRQPPGKGLEWIGYIDYSGTITYNPSLKSRVTITRDTSKNQFSLELSSVTAADTAVYYCARDLTHWYFDVWGQGTLVTVSS VL: DIVMTQSPDSLAVSLGERATINCKSSRSVDYYGIGFLNWYQQKPGQPPKLLIYATSKQGSGVPDRFSGSGSGTDFTLTISSLQAEDVAVYYCQQQKEVPPTFGGGTKVEIK
0.385	2.2	1.39	0.755	1.31	0.601	1.51	0.317	anti-GPNMB antibody GPN-85 (antibody, V domains shown) VH: QVQLQESGPGLVKPSETLSLTCTVSGISITTGNYRWSWIRQPPGKGLEWIGYIDYSGTITYNPSLKQRVTITRDTSKNQFSLELSSVTAADTAVYYCARDLTHWYFDVWGQGTLVTVSS VL: DIVMTQSPDSLAVSLGERATINCKSSRSVDYFGIGFLNWYQQKPGQPPKLLIYATSHQGSGVPDRFSGSGSGTDFTLTISSLQAEDVAVYYCQQQKEVPPTFGGGTKVEIK
0.167	0.898	1.18	0.757	1.35	0.501	1.18	0.443	anti-GPNMB antibody GPN-89 (antibody, V domains shown) VH: QVQLQESGPGLVKPSETLSLTCTVSGISITTGNYRWSWIRQPPGKGLEWIGYIDYSGTITYNPSLKSRVTITRDTSKNQFSLELSSVTAADTAVYYCARDLTHWYYDVWGQGTLVTVSS VL: DIVMTQSPDSLAVSLGERATINCKSSRSVDYYGIGFLNWYQQKPGQPPKLLIYATSHQGSGVPDRFSGSGSGTDFTLTISSLQAEDVAVYYCQQQKEVPPTFGGGTKVEIK
0.148	0.685	1.58	0.761	1.37	0.564	1.43	0.416	anti-GPNMB antibody GPN-90 (antibody, V domains shown) VH: QVQLQESGPGLVKPSETLSLTCTVSGISITTGNYRWSWIRQPPGKGLEWIGYIDYSGTITYNPSLKQRVTITRDTSKNQFSLELSSVTAADTAVYYCARDLTHWYFDVWGQGTLVTVSS VL: DIVMTQSPDSLAVSLGERATINCKSSRSVDYYGIGFLNWYQQKPGQPPKLLIYATSHQGSGVPDRFSGSGSGTDFTLTISSLQAEDVAVYYCQQQKEVPPTFGGGTKVEIK
0.192						0.625	0.262	anti-GPNMB antibody GPN-88 (antibody, V domains shown) VH: QVQLQESGPGLVKPSETLSLTCTVSGISITTGNYRWSWIRQPPGKGLEWIGYIDYSGTITYNPSLKSRVTITRDTSKNQFSLELSSVTAADTAVYYCARDLTHWYFDVWGQGTLVTVSS VL: DIVMTQSPDSLAVSLGERATINCKSSRSVDYYGIGFLNWYQQKPGQPPKLLIYATSHQGSGVPDRFSGSGSGTDFTLTISSLQAEDVAVYYCQQQKHVPPTFGGGTKVEIK
0.24						0.64	0.273	anti-GPNMB antibody GPN-91 (antibody, V domains shown) VH: QVQLQESGPGLVKPSETLSLTCTVSGISITTGNYRWSWIRQPPGKGLEWIGYIDYSGTITYNPSLKSRVTITRDTSKNQFSLELSSVTAADTAVYYCARDLTHWYFDVWGQGTLVTVSS VL: DIVMTQSPDSLAVSLGERATINCKSSRSVDYYGIGFLNWYQQKPGQPPKLLIYATSHQGSGVPDRFSGSGSGTDFTLTISSLQAEDVAVYYCQQQKERPPTFGGGTKVEIK
0.317	0.767	1.06	0.716	1.36	0.428	0.98	0.37	anti-GPNMB antibody GPN-87 (antibody, V domains shown) VH: QVQLQESGPGLVKPSETLSLTCTVSGISITTGNYRWSWIRQPPGKGLEWIGYIDYSGTITYNPSLKSRVTITRDTSKNQFSLELSSVTAADTAVYYCARDLTHWYYDVWGQGTLVTVSS VL: DIVMTQSPDSLAVSLGERATINCKSSRSVDYYGIGFLNWYQQKPGQPPKLLIYATSKQGSGVPDRFSGSGSGTDFTLTISSLQAEDVAVYYCQQQKEVPPTFGGGTKVEIK
0.241						1.44	0.33	anti-GPNMB antibody GPN-84 (antibody, V domains shown) VH: QVQLQESGPGLVKPSETLSLTCTVSGISITTGNYRWSWIRQPPGKGLEWIGYIDYSGTITYNPSLKSRVTITRDTSKNQFSLELSSVTAADTAVYYCARDLTHWYYDVWGQGTLVTVSS VL: DIVMTQSPDSLAVSLGERATINCKSSRSVDYYGIGFVNWYQQKPGQPPKLLIYATSIQGSGVPDRFSGSGSGTDFTLTISSLQAEDVAVYYCQQQKEVPPTFGGGTKVEIK
